According to US20130115220A1, “METHOD FOR PREVENTION OR TREATMENT OF METABOLIC SYNDROME” (DAINIPPON SUMITOMO PHARMA CO., LTD., priority 2010, published 2013):

Key:
AIM-/- mice [1] = assay: mRNA level of markers in visceral fat tissue by QPCR; format: in vivo, mouse; settings: rAIM administration group relative to BSA group, standardized with GAPDH
Method: The mRNA level of adipocyte marker, preadipocyte marker, and lipid droplet formation-related genes in the RNA extracted from visceral fat tissue of the mice of the rAIM administration group and BSA administration group was measured by QPCR. The measurement values were standardized with the measurement values of GAPDH, and shown by an expression level relative to that of the adipose tissue administered with BSA.

FAS [2] = molecular target: T1, FAS (Mus musculus, UniProt P19096); assay: FAS activity of adipose tissue of AIM-/- mice after intraadipose topical injection; format: in vivo; parameters: endogenous in cells; host or cells: 3T3-L1 adipocytes (treated cells, then lysed); settings: AIM-/- mice fed HFD 20 weeks, rAIM injected into adipose 3 hr before, versus BSA
Method: (§1) The influence of AIM on FAS activity of adipocyte or adipose tissue was examined. FAS activity was measured by the method of Kelley (Kelley et al., Biochem. J., 1986, 235:87-90) with slight modification. 3T3-L1 adipocytes, or lysates of adipose tissue of obese mice was mixed with acetyl-CoA and NADPH (0.2 M […] phosphate buffer [pH 7.0] containing 0.4 mM EDTA), and the mixture was placed in a spectrophotometer cuvette and maintained at 30° C. 20 μl of malonyl-CoA solution (0.2 mM) was added to start an enzyme reaction and decrease of OD was measured at a chart speed 2 cm/min. Based on the results, the enzyme activity of FAS was evaluated using the molar extinction coefficient of […] NADPH as 6220.
(§2) First, the FAS activity of 3T3-L1 cells treated for 6 days in the presence or absence of rAIM (5 μg/ml), and in the presence of C75 (25 μM) was measured. Moreover, the FAS activity of adipose tissues of AIM^+/+ mice and AIM^−/− mice and the FAS activity of adipose tissue of AIM^−/− mice administered with rAIM or BSA 3 hr before by intraadipose topical injection are shown in FIGS. 28 and 29, respectively.
(§3) All mice were fed with HFD for 20 weeks. The samples were dissolved (lysed) and the FAS activity was measured. The data was converted to that based on FAS protein, according to the results of WB performed using the same sample.

FAS [3] = molecular target: T1, FAS; assay: FAS enzyme activity of treated 3T3-L1 adipocytes; format: cell-based; parameters: endogenous in cells; host or cells: 3T3-L1 adipocytes (treated cells, then lysed); settings: 3T3-L1 adipocytes, rAIM 5 μg/ml, 6 days
Method: as §1, §2, §3

AIM knockout mice = assay: Macrophage infiltration into adipose tissue after systemic rAIM administration; format: in vivo, mouse; settings: intravenous injection 50 μg/body/injection, 3 weeks
Method: Then, rAIM was systemically administered to the AIM knockout mice by intravenous injection (50 μg/body/injection). After the administration was continued for 3 weeks, a section produced from the visceral fat tissue was stained with an anti-macrophage monoclonal antibody (F4/80).

AIM-/- mice [4] = assay: Body weight and fat amount of HFD-fed AIM-/- mice; format: in vivo; settings: AIM-/- mice on HFD, intraperitoneal 300 μg/injection/mouse twice a week, 5 weeks, versus BSA
Method: Then, rAIM was intraperitoneally administered twice a week (n=6; 300 μg/injection/mouse) to AIM^−/− mice for 5 weeks while feeding with HFD, and the body weight and adipose tissue amount were measured.

FAS [5] = assay: Co-immunoprecipitation of AIM-HA and FLAG-FAS or FAS domains in HEK 293T cells; format: binding; settings: Flag-labeled FAS domains in HEK293T cells stably expressing AIM-HA
Description: In HEK 293T cells, rAIM labeled with HA-tag and FAS labeled with FLAG-tag were co-expressed, and the binding of AIM and FAS was confirmed by co-immunoprecipitation using an anti-Flag antibody or anti-HA antibody.
Then, the AIM binding region in FAS was examined. FAS contains 8 domains of keto acyl synthase (KS), malonyl/acetyl transferase (MAT), dehydrase (DH), central core (CC), enoylreductase (ER), keto reductase (KR), acylcarrier protein (ACP) and thioesterase (TE).
The N-terminal of each domain of FAS was labeled with Flag sequence, and expressed in HEK293T cells where AIM-HA is stably expressed. The binding of AIM-HA and each domain of FAS was confirmed by co-immunoprecipitation using an anti-Flag antibody or anti-HA antibody.
The sequence encoding full-length FAS cDNA (nucleotide: +1-7515) labeled with FLAG-tag was constructed using a part of the cDNA clone provided by Dr. Ohara (Kazusa DNA Research Institute) and some fragments cloned by RT-PCR and pFLAG-CMV2 vector (Sigma).
A cDNA fragment encoding KS, MAT, DH, CC, ER, KR, ACP or TE was prepared by subcloning to pFLAG-CMV2 vector by using full-length FAS cDNA as a template.

[6] = test system: differentiated 3T3-L1 cells; assay: Lipid droplet fusion in differentiated 3T3-L1 cells, oil-red-O; format: cell-based, mouse; settings: rAIM 5 μg/ml
Method: The differentiated 3T3-L1 cells were loaded with rAIM (5 μg/ml) according to the schedule shown in FIG. 13, E. The oil-red-0 staining was performed before and after rAIM loading.
The relative size of lipid droplet (Relative droplet size) was determined from an average diameter of 50 lipid droplets. […] The number of cells containing lipid droplets per unit area was measured in 5 different fields and the average was determined.

3T3-L1 adipocytes = assay: Glycerol and free fatty acid released in culture supernatant; format: cell-based, mouse; settings: rAIM 5 μg/ml, day 2, day 4, day 6
Method: rAIM was loaded (5 μg/ml) on 3T3-L1 adipocytes, the amount of glycerol or free fatty acid released in the culture supernatant was measured on day 2, day 4, and day 6. After rAIM loading, the cells were washed twice with PBS, and incubated in a serum-free medium (FreeStyle™ 293 Expression Medium; Invitrogen) for 5 hr. The buffer was recovered, and the measurement was performed using a glycerol assay kit and a fatty acid assay kit (both Bio Vision Inc.) and according to the manual.

T1 sequence (P19096 whole entry): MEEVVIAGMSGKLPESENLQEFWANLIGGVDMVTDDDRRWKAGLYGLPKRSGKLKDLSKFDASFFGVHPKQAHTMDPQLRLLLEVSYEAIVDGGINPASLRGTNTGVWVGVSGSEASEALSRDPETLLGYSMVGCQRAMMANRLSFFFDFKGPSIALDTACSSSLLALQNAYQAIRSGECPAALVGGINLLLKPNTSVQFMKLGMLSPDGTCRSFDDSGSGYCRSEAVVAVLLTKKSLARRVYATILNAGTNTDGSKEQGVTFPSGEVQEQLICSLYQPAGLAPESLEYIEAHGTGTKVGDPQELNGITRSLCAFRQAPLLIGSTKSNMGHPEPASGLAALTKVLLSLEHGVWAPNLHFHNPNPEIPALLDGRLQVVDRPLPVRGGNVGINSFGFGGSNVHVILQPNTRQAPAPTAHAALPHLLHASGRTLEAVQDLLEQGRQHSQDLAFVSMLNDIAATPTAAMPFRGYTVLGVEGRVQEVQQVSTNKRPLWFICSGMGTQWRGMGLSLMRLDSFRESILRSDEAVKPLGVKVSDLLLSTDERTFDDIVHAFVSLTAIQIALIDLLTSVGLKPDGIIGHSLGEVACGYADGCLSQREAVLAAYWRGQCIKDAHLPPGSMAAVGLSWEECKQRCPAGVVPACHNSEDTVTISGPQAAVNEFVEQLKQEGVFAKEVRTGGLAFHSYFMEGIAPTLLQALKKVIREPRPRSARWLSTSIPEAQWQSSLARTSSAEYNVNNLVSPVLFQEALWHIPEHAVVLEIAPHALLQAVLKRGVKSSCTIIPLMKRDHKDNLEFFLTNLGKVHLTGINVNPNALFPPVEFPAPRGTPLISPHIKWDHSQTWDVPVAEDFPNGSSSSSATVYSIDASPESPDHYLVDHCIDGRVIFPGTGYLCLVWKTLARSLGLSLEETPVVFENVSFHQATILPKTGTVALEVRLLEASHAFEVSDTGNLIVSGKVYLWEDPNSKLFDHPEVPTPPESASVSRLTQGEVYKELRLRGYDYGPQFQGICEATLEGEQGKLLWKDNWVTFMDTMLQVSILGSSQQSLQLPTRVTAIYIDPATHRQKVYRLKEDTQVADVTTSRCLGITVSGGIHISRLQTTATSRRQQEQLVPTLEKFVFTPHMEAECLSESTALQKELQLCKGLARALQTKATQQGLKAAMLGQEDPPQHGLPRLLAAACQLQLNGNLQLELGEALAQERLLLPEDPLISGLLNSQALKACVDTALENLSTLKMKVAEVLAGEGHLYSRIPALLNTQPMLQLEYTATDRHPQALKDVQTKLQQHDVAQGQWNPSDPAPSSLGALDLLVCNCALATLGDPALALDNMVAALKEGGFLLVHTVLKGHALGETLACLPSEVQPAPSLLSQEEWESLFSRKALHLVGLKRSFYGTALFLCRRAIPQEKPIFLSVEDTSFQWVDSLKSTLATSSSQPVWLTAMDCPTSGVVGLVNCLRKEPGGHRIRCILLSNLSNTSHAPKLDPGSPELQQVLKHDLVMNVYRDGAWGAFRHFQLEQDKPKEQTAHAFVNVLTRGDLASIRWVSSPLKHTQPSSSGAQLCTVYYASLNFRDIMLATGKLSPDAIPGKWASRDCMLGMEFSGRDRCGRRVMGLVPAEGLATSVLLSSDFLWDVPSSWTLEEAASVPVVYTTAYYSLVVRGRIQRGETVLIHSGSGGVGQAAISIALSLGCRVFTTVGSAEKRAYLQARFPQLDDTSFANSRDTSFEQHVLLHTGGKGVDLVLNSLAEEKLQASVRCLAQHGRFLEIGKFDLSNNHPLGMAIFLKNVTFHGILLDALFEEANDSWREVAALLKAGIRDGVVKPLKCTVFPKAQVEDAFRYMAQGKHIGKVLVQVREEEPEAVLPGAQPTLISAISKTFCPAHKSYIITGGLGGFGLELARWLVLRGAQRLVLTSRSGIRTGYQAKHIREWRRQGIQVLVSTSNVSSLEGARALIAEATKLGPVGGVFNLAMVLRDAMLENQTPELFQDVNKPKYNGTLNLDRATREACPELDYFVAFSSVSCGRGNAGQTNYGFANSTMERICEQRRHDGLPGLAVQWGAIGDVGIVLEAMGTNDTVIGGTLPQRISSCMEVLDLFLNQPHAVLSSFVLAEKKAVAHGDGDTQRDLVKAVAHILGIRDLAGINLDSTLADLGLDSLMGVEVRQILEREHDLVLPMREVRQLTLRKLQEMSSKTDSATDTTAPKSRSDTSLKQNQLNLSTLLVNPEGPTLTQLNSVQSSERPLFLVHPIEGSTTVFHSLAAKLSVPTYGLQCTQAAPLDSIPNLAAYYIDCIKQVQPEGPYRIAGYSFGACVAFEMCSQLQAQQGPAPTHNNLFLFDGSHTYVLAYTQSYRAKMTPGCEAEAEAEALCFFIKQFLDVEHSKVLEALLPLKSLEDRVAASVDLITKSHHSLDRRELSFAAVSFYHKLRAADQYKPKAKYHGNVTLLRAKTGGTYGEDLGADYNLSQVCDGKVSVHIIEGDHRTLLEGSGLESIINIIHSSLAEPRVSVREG

B1: rAIM: recombinant AIM protein (rAIM) of mouse, HA-tagged, prepared in HEK293T cells (protein)
chain: ESPTKVQLVGGAHRCEGRVEVEHNGQWGTVCDDGWDRRDVAVVCRELNCGAVIQTPRGASYQPPASEQRVLIQGVDCNGTEDTLAQCELNYYVFDCSHEEDAGAQCENPDSDLLFIPEDVRLVDGPGHCQGRVEVLHQSQWSTVCKAGWNLQVSKVVCRQLGCGRALLTYGSCNKNTQGKGPIWMGKMSCSGQEANLRSCLLSRLENNCTHGEDTWMECEDPFELKLVGGDTPCSGRLEVLHKGSWGSVCDDNWGEKEDQVVCKQLGCGKSLHPSPKTRKIYGPGAGRIWLDDVNCSGKEQSLEFCRHRLWGYHDCTHKEDVEVICTDFDV
modifications: left off: small tags and cut ends
notes: recombinant AIM protein (rAIM) of mouse, HA-tagged, prepared in HEK293T cells
mRNA level of Adipophilin in visceral fat (AIM-/- mice [1]): low | mRNA level of FSP27 in visceral fat (AIM-/- mice [1]): low | mRNA level of PREF-1 in visceral fat (AIM-/- mice [1]): increased | mRNA level of Perilipin in visceral fat (AIM-/- mice [1]): low | mRNA of C/EBPα in visceral fat (AIM-/- mice [1]): did not show difference | mRNA of GLUT4 in visceral fat (AIM-/- mice [1]): did not show difference | mRNA of PPARγ2 in visceral fat (AIM-/- mice [1]): did not show difference | FAS activity in adipose tissue (FAS [2]): decreased | FAS activity (FAS [3]): markedly suppressed | infiltration of macrophages into adipose tissue (F4/80 staining of visceral fat section) (AIM knockout mice): infiltration of macrophages into adipose tissue | increase in body weight (AIM-/- mice [4]): significantly small increase | increase in subcutaneous fat (AIM-/- mice [4]): significantly small increase | increase in visceral fat (AIM-/- mice [4]): significantly small increase | FAS domains bound to AIM (FAS [5]): ER, DH, TE and CC | number of lipid droplet-containing cells per unit area ([6]; 6 days): significantly decreased | relative size of lipid droplets ([6]; 6 days): significantly decreased | lipid droplet in the cell (oil-red-O) ([6]; 6 days of culture): markedly decreased | amount of free fatty acids in the culture supernatant (3T3-L1 adipocytes): significantly increased | amount of glycerol in the culture supernatant (3T3-L1 adipocytes): significantly increased
